Molecular target: recombinant human VISTA-Fc protein (R&D #7126-B7) (human) (UniProt Q9H7M9)
Test: ELISA: plate coated with human VISTA-Fc, LRIG1.HIS titrated (x axis labelled 'Antibody Concentration (log M)')

recombinant human VISTA-Fc protein (R&D #7126-B7) (human), sequence (Q9H7M9 33-194 limits assumed): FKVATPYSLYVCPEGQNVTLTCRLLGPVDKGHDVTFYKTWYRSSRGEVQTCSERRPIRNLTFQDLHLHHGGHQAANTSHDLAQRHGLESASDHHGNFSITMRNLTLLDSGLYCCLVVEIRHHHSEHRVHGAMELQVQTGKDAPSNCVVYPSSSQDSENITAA

EC50 (read off the curve): 9 nM
Substance: recombinant human LRIG1.HIS (from UniProt Q96JA1 35-794) (receptor)

From patent US20260098093A1
